From the supplement of paper PMC9170038

Test system: K4 kissing-loop RNA reporter
Experiment: apparent KD of K4 kissing-loop reporter; higher = weaker reporter binding
Conditions: Eterna round: R107
Experimental: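 RNA-MaP round R107: designed RNA switches with theophylline, tryptophan, arginine or FMN aptamers are transcribed on-chip within common flanks. They are titrated with a labelled K4 kissing-loop RNA reporter in RNA-MaP buffer (100 mM Tris pH 7.5, 80 mM KCl, 4 mM MgCl2), without ligand or with the indicated ligand. Median apparent KD per design.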

[1] = input ligand: theophylline 20 uM
[2] = input ligand: tryptophan 2.4 mM
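Note: bound reporter read as fluorescence of individual clusters on recovered sequencing chips by microscopy, with normalized cluster intensities fitted with a binding model.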

Sequence | apparent KD of K4 kissing-loop reporter (input ligand: FMN 200 uM) [nM] | apparent KD of K4 kissing-loop reporter (input ligand: arginine 13.2 mM) [nM] | apparent KD of K4 kissing-loop reporter (input ligand: none) [nM] | apparent KD of K4 kissing-loop reporter [1] [nM] | apparent KD of K4 kissing-loop reporter [2] [nM]
CGACGCCGGUCGGCCGCCACUCACAGCAGCCAGUGAUGUUGGAUUGUAGCGGAGUGAUGUUUCGCGAGGACCGGGACUGCAGUCG [Same State Tryptophan B GF 12] | 167 | 131 | 129 | 130 | 143
CGAGUGAUGUUCGUUUUUUUAUUUUUUUGACAGGAUAUGCGGAAACGCAGAAGGGUCACCUUUGAGUUAAAAGAAUUUAAAUUAU [Ex FMN A 23] | 278 | 208 | 254 | 213 | 193
CGCAGUGAUGUUGCGAGUUUGAUCAGGGAAGGAGCGGCUCAGAAGCCAGGUAGGUCGCCCACGCAGUGAUGUUGUGUAUUCGGGU [Exclusion Arginine A GF 1] | 96.9 | 88.1 | 87.9 | 89.1 | 79.3
CGCAGUGAUGUUGCUAUAUUUCUUGAUUAACGAGGACCGGUACGGCCGCCACUCGAUUUCUCUCUAAUCCACUAUGUUGUUUAGA [JR_SSTryptoA_Sub002] | 390 | 472 | 506 | 524 | 319
CGCAGUGAUGUUGCUAUUAUUCUUGAUUAACGAGGACCGGUACGGCCGCCACUCGAUUUCUAUCUAAUCCAGUGUUUUGUUGAGU [JR_ExcTryptoA_Sub002] | 324 | 422 | 346 | 455 | 240
CGCCACAACUGAAGGAGCGCGCCAGUGAUGUUGGACGGCUUCGUCAAGGAAACUGCACCGGUGCAGGUAGGUCGCAGUGCGUGGU [Eranarve] | 186 | 164 | 204 | 162 | 195
CGCCGAUUGUCGGAGUGAUGUUCCCGGGAUACCAGCACGUCGUCAUGCCCUUGGCAGCCCAACAGACCAUUUUAAAGGCUAGCUG [theeternabot_sameState_KL_Theo_A_35] | 330 | 97.8 | 122 | 221 | 158
CGCCGGAAGGCGAGCGCUCCCACUCCGGAAGGAGCGCCCGGAAGGGCAGGUAGGUCGCCGGAGUGAUGUUCCGGUGGAGGGCUCG [#2 Exclusion - Arginine A Attempt #11 (Inspired by Omei)] | 171 | 58 | 164 | 99.3 | 99.9
CGCGGCCGGCCGGAUACCAGUGACCCGCUGGAAACCGCGGGCCCAGAGUGAUGUUCGGGACACCCUUGGCAGCCGCCUGGGCGUG [#2 Same State - Theophylline B Attempt #2 (HarryS)] | 547 | 309 | 440 | 456 | 397
CGCUGGGCGAGUGAUGUUCGCUCACGUGAUACCAGUGCAAUCCAACACCCUUGGCAGCACGCGGGCAGUGAUGUUGUCCUUAGUG [Exclusion Theophylline A GF12] | 160 | 149 | 157 | 143 | 127
CGUGAAUGUCGUCAGUCAUCGGUCCAUGCACGAGGACCGGUACGGCCGCCACUCGAGCGUGGCAGUGAUGUUGCCAGCGCACUAA [KL-XTryp-A13] | 138 | 115 | 128 | 137 | 315
CGUUCAUCCUAGGCGUGAGUGAUGUUUACCCGAGGACCGGUACGGCCGCCACUCGUAUGGCGAGAGUUUAGCCAUUUCCAAUAUA [theeternabot_exclusion_KL_Trp_A_17] | 465 | 403 | 503 | 505 | 398
CGUUUCUCUGUCGAUACCAGCUUCAGUUGGCGGCCAGUGAUGUUGGUAUCGCCGAUGCCAAGCCCUUGGCAGCGACAUGAGACCC [Gezausin] | 169 | 163 | 193 | 128 | 166
CUAUCUUAAGAAGGAUAUUAUGUAACAAACGCAGGCGUAUUAGAAUCAGUGAUGUUGAAAUAGGUUUAAGAAGGUCUUAAAGAAA [theeternabot_sameState_KL_FMN_B_31] | 593 | 422 | 326 | 608 | 243
CUCCGACUAUCGGCCGCCACUAUCGGAAAGUCCACGGACAUUCAAUGCAGUUAGUGAUGUUAACGUAGGACCGGGAUGAUUUGUA [theeternabot_sameState_KL_Trp_B_9] | 543 | 350 | 659 | 541 | 491
CUCGAGUGAUGUUCGAUUAUUUAUACAGAUACCAGUGAAUUUUAACACCCUUGGCAGCUGGUUGUAUCAUUGUUUUUUACAAAAG [JR_ExcTheophyA_Sub007] | 113 | 167 | 117 | 195 | 100
CUCGUGGGUUUGAGAGGGUUUGUGGGAAGUGAGGAUAUUUAGGGAGAAAGAAGGCACUAUAAAAUAUAGUGAUGUUAUAUAAGGG [SSFMNA.L] | 277 | 141 | 325 | 194 | 198
